This is an account of results in publication PMC8226839, “New Perspectives in the Antimicrobial Activity of the Amphibian Temporin B: Peptide Analogs Are Effective Inhibitors of Candida albicans Growth” (Journal of Fungi, 2021).

This test relates to C. albicans. Kind of test: Broth microdilution, impact of protease inactivation conditions (growth %). Type of test: cell-based, Candida albicans.

B1: Proteinase K: protease, applied alone as control after thermal inactivation (protein, UniProt P06873 106-384, looked up)
Proteinase K: AAQTNAPWGLARISSTSPGTSTYYYDESAGQGSCVYVIDTGIEASHPEFEGRAQMVKTYYYSSRDGNGHGTHCAGTVGSRTYGVAKKTQLFGVKVLDDNGSGQYSTIIAGMDFVASDKNNRNCPKGVVASLSLGGGYSSSVNSAAARLQSSGVMVAVAAGNNNADARNYSPASEPSVCTVGASDRYDRRSSFSNYGSVLDIFGPGTSILSTWIGGSTRSISGTSMATPHVAGLAAYLMTLGKTTAASACRYIADTANKGDLSNIPFGTVNLLAYNNYQA
modifications: heat-inactivated
In the case of B1, the “Growth [%]” value (0.125 µM protease alone + 100 °C, 15 min) was 86 ± 4.5%.

B2: Trypsin: protease, applied alone as control after neutralization with 1.25% FCS (protein, UniProt P00760 24-246, looked up)
Serine protease 1: IVGGYTCGANTVPYQVSLNSGYHFCGGSLINSQWVVSAAHCYKSGIQVRLGEDNINVVEGNEQFISASKSIVHPSYNSNTLNNDIMLIKLKSAASLNSRVASISLPTSCASAGTQCLISGWGNTKSSGTSYPDVLKCLKAPILSDSSCKSAYPGQITSNMFCAGYLEGGKDSCQGDSGGPVVCSGKLQGIVSWGSGCAQKNKPGVYTKVCNYVSWIKQTIASN
Consider B2, for which the “Growth [%]” value (0.125 µM protease alone + 1.25 % FCS) was 136.7 ± 14%.
